The data set deals with T1, H-NS (Shewanella oneidensis MR-1) (UniProt Q8ECJ6).
T1 sequence: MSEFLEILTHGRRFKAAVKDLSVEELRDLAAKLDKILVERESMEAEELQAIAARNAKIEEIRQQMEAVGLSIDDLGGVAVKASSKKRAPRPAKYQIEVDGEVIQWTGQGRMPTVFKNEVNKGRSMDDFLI
Put plainly: EMSA. The following applies: H-NS incubated with biotin-labelled probe with or without unlabelled probe, 1 h at different temperatures; binding buffer not stated (refers to Liu et al. 2015).

This is an account of results in paper PMC5148205.

As for “GATTTTCTAGTGACAGAAGGTTTTAGCGTTGATAATGCCAAATATGCTGAATTATTTTTGAGACCGAGTAAATTTCTTAGGGGACCAAAAAAACGCATATAATACAATGGATAATGCAATTTAGGTGAGCAAAGGGGACCGTTTTTACCCCGTTTATTCATGCTTCATAACCATCTAATCTCAGGGTTGTAGACGTTTATTCACAACTCTGAGGACGATTATGAACACAACTCTCAC (double strand) [PalpA (alpA promoter)]”, the binding result is “binds”.
The result for “TAGCGATGAAATGGCTTTTTGGGTGGCGGTTTATCGTGATTAACGCAGAAGGTGAAGCGTGGTACATCGATGTTAAACCTGATGCCAAAGTAAAACCTGTTGGTAAAAATAAGGACGGTGCATAATGTTTCAGCAAGAAATAGAAGCTATGCAGGGTAAAGTGGTGCAGCAG (double strand) [PSO_3012 (LambdaSo excisionase promoter)]” reads “no binding”.
